Data taken from publication PMC2756588.

T1: Pin3, Q06449
T1 sequence (Q06449 53-122, looked up): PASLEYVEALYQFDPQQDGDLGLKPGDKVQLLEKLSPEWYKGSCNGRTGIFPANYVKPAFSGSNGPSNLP

T2: Lsb3, P43603
T2 sequence (P43603 385-451, looked up): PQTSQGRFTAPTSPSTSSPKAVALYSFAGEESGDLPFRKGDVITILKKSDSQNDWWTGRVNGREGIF

T3: Pex13, P80667
T3 sequence (P80667 295-386, looked up): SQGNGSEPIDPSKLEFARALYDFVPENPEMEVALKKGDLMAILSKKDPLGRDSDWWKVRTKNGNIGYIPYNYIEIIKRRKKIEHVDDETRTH

T4: Sla1-3, P32790
T4 sequence (P32790 344-424, looked up): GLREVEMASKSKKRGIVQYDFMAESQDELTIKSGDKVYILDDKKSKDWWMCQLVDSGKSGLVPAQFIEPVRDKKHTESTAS

T5: Myo5, Q04439
T5 sequence (Q04439 1072-1160, looked up): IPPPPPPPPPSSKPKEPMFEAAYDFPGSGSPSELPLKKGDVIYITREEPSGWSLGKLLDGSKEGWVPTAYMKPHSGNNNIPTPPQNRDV

T6: Abp1, P15891
T6 sequence (P15891 535-592, looked up): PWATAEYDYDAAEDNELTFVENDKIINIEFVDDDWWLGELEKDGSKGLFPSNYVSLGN

T7: Lsb4, P32793
T7 sequence (P32793 402-468, looked up): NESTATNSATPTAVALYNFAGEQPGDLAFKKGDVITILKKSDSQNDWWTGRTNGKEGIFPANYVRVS

T8: Boi2, P39969
T8 sequence (P39969 32-116, looked up): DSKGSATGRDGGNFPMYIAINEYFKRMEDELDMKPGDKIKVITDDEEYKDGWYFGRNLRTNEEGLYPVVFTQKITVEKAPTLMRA

T9: Lsb1, P53281
T9 sequence (P53281 45-122, looked up): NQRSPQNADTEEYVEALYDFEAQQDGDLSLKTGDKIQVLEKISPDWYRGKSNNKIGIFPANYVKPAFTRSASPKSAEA

T10: Cdc25, P04821
T10 sequence (P04821 50-136, looked up): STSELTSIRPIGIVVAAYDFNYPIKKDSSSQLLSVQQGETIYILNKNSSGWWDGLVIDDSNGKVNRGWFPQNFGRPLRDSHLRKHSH

T11: Bzz1-2, P38822
T11 sequence (P38822 568-633, looked up): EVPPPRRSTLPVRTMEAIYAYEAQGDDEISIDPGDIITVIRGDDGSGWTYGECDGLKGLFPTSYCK

T12: Bbc1, P47068
T12 sequence (P47068 1-78, looked up): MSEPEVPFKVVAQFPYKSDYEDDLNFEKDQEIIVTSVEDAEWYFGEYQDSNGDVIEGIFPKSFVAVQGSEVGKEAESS

T13: Boi1, P38041
T13 sequence (P38041 1-86, looked up): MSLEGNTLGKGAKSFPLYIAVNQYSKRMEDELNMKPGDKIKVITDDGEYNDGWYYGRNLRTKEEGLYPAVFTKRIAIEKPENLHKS

T14: Hof1, Q05080
T14 sequence (Q05080 590-669, looked up): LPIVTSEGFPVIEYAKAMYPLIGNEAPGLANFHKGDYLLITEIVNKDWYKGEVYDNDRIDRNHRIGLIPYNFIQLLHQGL

T15: Bzz1-1, P38822
T15 sequence (P38822 478-572, looked up): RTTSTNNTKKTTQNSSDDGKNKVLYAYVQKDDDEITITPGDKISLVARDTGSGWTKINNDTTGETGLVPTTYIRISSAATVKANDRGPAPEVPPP

T16: Nbp2, Q12163
T16 sequence (Q12163 103-180, looked up): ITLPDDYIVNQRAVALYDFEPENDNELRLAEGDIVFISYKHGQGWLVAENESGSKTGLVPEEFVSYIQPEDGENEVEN

T17: Sla1-2, P32790
T17 sequence (P32790 60-140, looked up): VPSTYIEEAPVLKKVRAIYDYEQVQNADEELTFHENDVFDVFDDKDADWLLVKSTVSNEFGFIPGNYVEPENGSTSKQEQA

T18: Cyk3, Q07533
T18 sequence (Q07533 1-83, looked up): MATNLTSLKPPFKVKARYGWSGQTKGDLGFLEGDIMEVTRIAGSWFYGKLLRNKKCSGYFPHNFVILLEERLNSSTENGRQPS

T19: Fus1, P11710
T19 sequence (P11710 432-512, looked up): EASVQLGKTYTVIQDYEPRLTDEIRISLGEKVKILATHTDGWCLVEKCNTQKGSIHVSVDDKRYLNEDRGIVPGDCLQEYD

T20: Hse1, P38753
T20 sequence (P38753 208-285, looked up): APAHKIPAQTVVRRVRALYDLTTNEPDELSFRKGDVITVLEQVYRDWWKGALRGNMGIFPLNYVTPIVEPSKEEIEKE

T21: Bud14, P27637
T21 sequence (P27637 247-328, looked up): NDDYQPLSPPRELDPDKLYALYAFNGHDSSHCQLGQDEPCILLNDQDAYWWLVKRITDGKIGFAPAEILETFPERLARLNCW

B1: unnamed (peptide)
chain: VNIPSPSSSPPPIPK
B2: unnamed (peptide)
chain: PPLPRAPPVPPATFE
B3: unnamed (peptide)
chain: PSPSSSPPPIPKTAN

molecular target: T1, Pin3, Q06449; experiment: SPOT array; conditions: median of control spots 2171

Row | Binder | SPOT intensity
1 | B1 | 0
2 | B2 | 0
3 | B3 | 0

molecular target: T2, Lsb3, P43603; experiment: SPOT array; conditions: median of control spots 406

Row | Binder | SPOT intensity
4 | B1 | 0
5 | B2 | 0
6 | B3 | 0

molecular target: T3, Pex13, P80667; experiment: SPOT array; conditions: median of control spots 1341

Row | Binder | SPOT intensity
7 | B1 | 0
8 | B2 | 14
9 | B3 | 0

molecular target: Bem1-1, P29366; experiment: SPOT array; conditions: median of control spots 4282
Sequence (P29366 55-141): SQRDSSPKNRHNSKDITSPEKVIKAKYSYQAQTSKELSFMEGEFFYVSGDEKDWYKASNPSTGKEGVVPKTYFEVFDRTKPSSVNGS

Row | Binder | SPOT intensity
10 | B1 | 0
11 | B2 | 2
12 | B3 | 1

molecular target: T4, Sla1-3, P32790; experiment: SPOT array; conditions: median of control spots 5475

Row | Binder | SPOT intensity
13 | B1 | 3
14 | B2 | 1
15 | B3 | 0

molecular target: T5, Myo5, Q04439; experiment: SPOT array; conditions: median of control spots 471

Row | Binder | SPOT intensity
16 | B1 | 529
17 | B2 | 137
18 | B3 | 300

molecular target: T6, Abp1, P15891; experiment: SPOT array; conditions: median of control spots 935

Row | Binder | SPOT intensity
19 | B1 | 1
20 | B2 | 27
21 | B3 | 0

molecular target: T7, Lsb4, P32793; experiment: SPOT array; conditions: median of control spots 397

Row | Binder | SPOT intensity
22 | B1 | 0
23 | B2 | 0
24 | B3 | 0

molecular target: Sho1, P40073; experiment: SPOT array; conditions: median of control spots 1148
Sequence (P40073 287-367): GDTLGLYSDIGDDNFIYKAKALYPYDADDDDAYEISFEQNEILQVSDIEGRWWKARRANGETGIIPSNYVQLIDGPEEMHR

Row | Binder | SPOT intensity
25 | B1 | 0
26 | B2 | 9
27 | B3 | 0

molecular target: T8, Boi2, P39969; experiment: SPOT array; conditions: median of control spots 1161

Row | Binder | SPOT intensity
28 | B1 | 0
29 | B2 | 0
30 | B3 | 1

molecular target: T9, Lsb1, P53281; experiment: SPOT array; conditions: median of control spots 388

Row | Binder | SPOT intensity
31 | B1 | 0
32 | B2 | 7
33 | B3 | 0

molecular target: T10, Cdc25, P04821; experiment: SPOT array; conditions: median of control spots 969

Row | Binder | SPOT intensity
34 | B1 | 0
35 | B2 | 1
36 | B3 | 1

molecular target: GST; experiment: SPOT array; conditions: median of control spots 978

Row | Binder | SPOT intensity
37 | B1 | 0
38 | B2 | 0
39 | B3 | 1

molecular target: T11, Bzz1-2, P38822; experiment: SPOT array; conditions: median of control spots 4538

Row | Binder | SPOT intensity
40 | B1 | 0
41 | B2 | 4
42 | B3 | 3

molecular target: T12, Bbc1, P47068; experiment: SPOT array; conditions: median of control spots 796

Row | Binder | SPOT intensity
43 | B1 | 0
44 | B2 | 3
45 | B3 | 0

molecular target: T13, Boi1, P38041; experiment: SPOT array; conditions: median of control spots 1162

Row | Binder | SPOT intensity
46 | B1 | 0
47 | B2 | 1
48 | B3 | 1

molecular target: T14, Hof1, Q05080; experiment: SPOT array; conditions: median of control spots 4086

Row | Binder | SPOT intensity
49 | B1 | 0
50 | B2 | 183
51 | B3 | 0

molecular target: Bem1-2, P29366; experiment: SPOT array; conditions: median of control spots 4347
Sequence (P29366 139-227): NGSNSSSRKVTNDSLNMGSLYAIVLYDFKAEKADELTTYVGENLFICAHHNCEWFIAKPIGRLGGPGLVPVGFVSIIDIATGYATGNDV

Row | Binder | SPOT intensity
52 | B1 | 49
53 | B2 | 59
54 | B3 | 0

molecular target: T15, Bzz1-1, P38822; experiment: SPOT array; conditions: median of control spots 4446

Row | Binder | SPOT intensity
55 | B1 | 1
56 | B2 | 2
57 | B3 | 1

molecular target: T16, Nbp2, Q12163; experiment: SPOT array; conditions: median of control spots 357

Row | Binder | SPOT intensity
58 | B1 | 2
59 | B2 | 2
60 | B3 | 0

molecular target: Myo3, P36006; experiment: SPOT array; conditions: median of control spots 468

Row | Binder | SPOT intensity
61 | B1 | 464
62 | B2 | 269
63 | B3 | 413

molecular target: Rvs167, P39743; experiment: SPOT array; conditions: median of control spots 2707
Sequence (P39743 419-482): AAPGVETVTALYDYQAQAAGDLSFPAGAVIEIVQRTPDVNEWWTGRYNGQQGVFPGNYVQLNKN

Row | Binder | SPOT intensity
64 | B1 | 0
65 | B2 | 0
66 | B3 | 0

molecular target: T17, Sla1-2, P32790; experiment: SPOT array; conditions: median of control spots 712

Row | Binder | SPOT intensity
67 | B1 | 0
68 | B2 | 1
69 | B3 | 0

molecular target: T18, Cyk3, Q07533; experiment: SPOT array; conditions: median of control spots 1451

Row | Binder | SPOT intensity
70 | B1 | 0
71 | B2 | 0
72 | B3 | 0

molecular target: T19, Fus1, P11710; experiment: SPOT array; conditions: median of control spots 1200

Row | Binder | SPOT intensity
73 | B1 | 0
74 | B2 | 0
75 | B3 | 0

molecular target: T20, Hse1, P38753; experiment: SPOT array; conditions: median of control spots 1727

Row | Binder | SPOT intensity
76 | B1 | 8
77 | B2 | 0
78 | B3 | 0

molecular target: T21, Bud14, P27637; experiment: SPOT array; conditions: median of control spots 956

Row | Binder | SPOT intensity
79 | B1 | 1
80 | B2 | 0
81 | B3 | 0
